Assay results as given in patent publication EP1224288B1 (Pharis Biotec GmbH, dated 2006).
Values belong to the binder of their own block, whether it stands above or below them.

Assays:
chemokine receptor CCR1 [1] = target: T1, chemokine receptor CCR1 (human, UniProt P32246 1-355); assay: cell-based or functional assay
T1 sequence (looked up): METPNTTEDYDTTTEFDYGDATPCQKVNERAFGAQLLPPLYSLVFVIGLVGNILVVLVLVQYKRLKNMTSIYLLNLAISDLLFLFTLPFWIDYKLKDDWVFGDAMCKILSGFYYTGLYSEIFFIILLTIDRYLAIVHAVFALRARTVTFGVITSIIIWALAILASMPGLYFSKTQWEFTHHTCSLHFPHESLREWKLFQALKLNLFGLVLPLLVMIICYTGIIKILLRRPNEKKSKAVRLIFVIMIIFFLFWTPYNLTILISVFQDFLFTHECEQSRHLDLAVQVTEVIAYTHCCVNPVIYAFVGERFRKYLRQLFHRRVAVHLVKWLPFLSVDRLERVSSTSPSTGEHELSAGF

[2] = target: T2, chemokine receptor 5 (CCR5; AC P51681) (human, UniProt P51681 1-352); assay: cell-based or functional assay
chemokine receptor CCR3 [3] = target: T3, chemokine receptor CCR3 (human, UniProt P51677 1-355); assay: cell-based or functional assay
T3 sequence (looked up): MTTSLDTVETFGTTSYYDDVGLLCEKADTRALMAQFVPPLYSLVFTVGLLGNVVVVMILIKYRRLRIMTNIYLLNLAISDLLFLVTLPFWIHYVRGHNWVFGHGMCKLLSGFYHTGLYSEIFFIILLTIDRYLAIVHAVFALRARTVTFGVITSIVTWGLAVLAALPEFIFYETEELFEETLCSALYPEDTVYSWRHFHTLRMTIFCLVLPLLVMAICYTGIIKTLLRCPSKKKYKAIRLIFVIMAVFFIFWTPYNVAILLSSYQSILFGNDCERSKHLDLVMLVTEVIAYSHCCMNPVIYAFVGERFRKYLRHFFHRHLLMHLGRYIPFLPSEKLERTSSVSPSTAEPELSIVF

chemokine receptor CCR3 [4] = target: T3, chemokine receptor CCR3; assay: radioligand competition, 0.1 nM 125I-Eotaxin tracer, membranes of CHO-K1 cells expressing CCR3
[5] = target: T2, chemokine receptor 5 (CCR5; AC P51681); assay: radioligand competition, 0.1 nM 125I-MIP 1-alpha tracer, membranes of CHO-K1 cells expressing CCR5
chemokine receptor CCR1 [6] = target: T1, chemokine receptor CCR1; assay: radioligand competition, 125I-Rantes tracer on CCR1
[7] = target: T2, chemokine receptor 5 (CCR5; AC P51681); assay: radioligand competition, 125I-MIP 1-alpha tracer on CCR5
chemokine receptor CCR3 [8] = target: T3, chemokine receptor CCR3; assay: radioligand competition, 125I-Eotaxin tracer on CCR3
chemokine receptor CCR1 [9] = target: T1, chemokine receptor CCR1; assay: radioligand competition, 0.1 nM 125I-Rantes tracer, membranes of CHO-K1 cells expressing CCR1
chemokine receptor CCR1 [10] = target: T1, chemokine receptor CCR1; assay: radioligand competition binding on CCR1

T2 sequence (P51681 whole entry, one chain of several): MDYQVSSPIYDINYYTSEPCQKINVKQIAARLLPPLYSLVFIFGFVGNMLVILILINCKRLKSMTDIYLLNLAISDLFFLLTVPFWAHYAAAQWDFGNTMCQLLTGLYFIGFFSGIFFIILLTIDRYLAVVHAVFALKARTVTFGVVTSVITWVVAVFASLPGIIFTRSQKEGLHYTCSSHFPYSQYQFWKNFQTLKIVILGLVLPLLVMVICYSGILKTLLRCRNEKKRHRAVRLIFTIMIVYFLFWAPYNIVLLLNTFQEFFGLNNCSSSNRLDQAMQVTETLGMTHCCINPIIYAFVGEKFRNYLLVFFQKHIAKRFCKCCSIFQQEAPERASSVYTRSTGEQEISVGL

B1: RANTES (ligand, UniProt P13501 24-91, looked up)
chain: SPYSSDTTPCCFAYIARPLPRAHIKEYFYTSGKCSNPAVVFVTRKNRQVCANPEKKWVREYINSLEMS
modifications: also: 125I-labelled as tracer, position not given here
Aequorin assay, EC50 (chemokine receptor CCR1 [1]): 6.3 nM | Aequorin assay, activation of CCR5 transfected CHO-K1 cells, EC50 [2]: 2.4 nM

B4: MIP 1-alpha (ligand, UniProt P10147 24-92, looked up)
chain: SLAADTPTACCFSYTSRQIPQNFIADYFETSSQCSKPGVIFLTKRSRQVCADPSEEWVQKYVSDLELSA
modifications: also: 125I-labelled as tracer, position not given here
Aequorin assay, activation of CCR5 transfected CHO-K1 cells, EC50 [2]: 3.3 nM

Continued, values first:

Aequorin assay, EC50 (chemokine receptor CCR1 [1]): 2.8 nM | Aequorin assay, activation of CCR5 transfected CHO-K1 cells, EC50 [2]: 4.8 nM | Aequorin assay, EC50 (chemokine receptor CCR3 [3]): 78 nM | IC50 (chemokine receptor CCR3 [4]): 78 nM | IC50 [5]: 0.04 nM | Ki (chemokine receptor CCR1 [6]): 0.023 nM | Ki [7]: 0.04 nM | Ki (chemokine receptor CCR3 [8]): 2.7 nM | IC50 (chemokine receptor CCR1 [9]): 2.3 nM
B2: processed chemokine PHC-1 (HCC-1, residues 9-74) (ligand)
chain: GPYHPSECCFTYTTYKIPRQRIMDYYETNSQCSKPGIVFITKRGHSVCTNPSDKWVQDYIKDMKEN
notes: also called HCC-1[9-74]

Ki (chemokine receptor CCR1 [10]): 100 nM
B3: full size HCC-1 (HCC-1, residues 1-74) (ligand)
chain: TKTESSSRGPYHPSECCFTYTTYKIPRQRIMDYYETNSQCSKPGIVFITKRGHSVCTNPSDKWVQDYIKDMKEN
notes: also called full-length HCC-1; HCC-1, 1-74
